{
  "source": "patent US7927849B2",
  "about": "“Laccase enzyme and use thereof” (AB Enzymes OY, priority 2004, dated 2011)",
  "key": {"[1]": {"experiment": "Specific activity on DMP", "assay_type": "biochemical", "settings": "25 mM MES buffer, pH 5.5", "method": "Specific activities of the purified Thielavia laccase were determined towards different laccase substrates."}, "[2]": {"experiment": "Redox potential, Pt-AgCl/KCl microelectrode", "assay_type": "physicochemical", "settings": "pH 5.0", "method": "The purified recombinant Thielavia arenaria TaLcc1 was characterized in terms of pH optimum, thermal stability, and pI as described in Example 2. The molecular weight was determined by MALDI-TOF mass spectrometry on a Ultraflex™ time-of-flight instrument (BrukerDaltonics, Germany) as previously described (Palonen et al., 2003). The redox potential of TaLcc1 was also determined with a combined Pt-AgCl/KCl microelectrode at pH 5.0 according to Sigoillot et al (2004)"}, "[3]": {"experiment": "Denim bleaching, effect of enzyme dosage (Wascator)", "settings": "60° C., pH 6", "method": "Lee Cooper Jeans previously washed with ECOSTONE® cellulases (Example 7) were treated with a TaLcc1 laccase product from Trichoderma strain RF5598 and DeniLite Base from Novozymes using different laccase dosages. The laccase treatments were performed with Electrolux's Wascator FOM 71 CLS washer extractor under optimal conditions for each enzyme, shown in Table 13. Methyl syringate (Example 7) was used as a mediator. Laccase was inactivated after draining by raising the pH above 11 by NaOH (10 min, 60° C.) and rinsing 3 times. The fabrics were dried in a tumbler.\nThe bleaching effect was evaluated by measuring the colour after laccase treatment as reflectance values (as in Example 7) and comparing the values to previously measured values after cellulase treatment."}, "[4]": {"experiment": "Stain removal with laccases, grass", "settings": "60 min, pH 6", "method": "The TaLcc1 (RF5598) and Denilite II Base laccase preparations were tested for their ability to remove stains. The following artificially soiled test cloths were used: grass soiling (Art. 164, EMPA Testmaterialen, Germany), tea soiling (Art. 167, EMPA Testmaterialen, Germany). The fabric was cut in 5.8×5.8 cm swatches. Laccase treatments were performed in LP-2 Launder Ometer as follows. About 5 g of soiled fabrics were loaded into 1.2 liter containers containing 150 ml Mc Ilvaine's citrate phosphate buffer pH 6 and the containers were temperated. Enzymes with or without the mediator (methyl syringate, DeniLite II Assist, Novozymes) were dosed as laccase activity units (Example 7). Enzyme dosage was 200 nkat/g and mediator dosage 10 mg/g of the weight of fabric, except at 40° C. also dosages of 20 nkat/g and 2 mg/g were used. The Launder Ometer was run at 40, 50 or 60° C. and pH 6 for 60 min. After that the swatches were carefully rinsed under running water and in shake flasks containing warm water and dried in the air.\nThe stain removal effect was evaluated by measuring the colour as reflectance values using L*a*b* color space coordinates (Example 7). The colour of the swatches was measured before and after the laccase treatment."}, "[5]": {"experiment": "Decolorization of dyes", "design": "key to Decolorization of Indigocarmine, Time 30 min / Decolorization of Indigocarmine, Time 90 min: −: no visually detectable change; +: visually detectable fading of the colour; ++: considerable fading of the colour; +++: complete/almost complete decolorization", "settings": "50° C., pH 6; for Decolorization of Indigocarmine, Time 30 min / Decolorization of Indigocarmine, Time 90 min: dye 12 mg/100 ml", "method": "The TaLcc1 laccase preparation from strain RF5597 was tested for its ability to decolourize different dyes in the presence or absence of the methyl syringate mediator (Example 7). The experiments were carried out in 250 ml shake flasks containing 100 ml of dye dissolved in citrate phosphate buffer pH 6. Dye concentration 12 mg/100 ml was used. Enzyme was dosed 200 nkat (or 20 nkat) per 100 ml and the mediator 10 (or 1) mg per 100 ml. The shake flasks were incubated at 50° C. for 30, 90 and 150 minutes. Samples of 3.5 ml were taken in test tubes for visual evaluation."}, "[6]": {"settings": "20 nkat/g, mediator 1 mg/g, 30 min"}, "[7]": {"settings": "20 nkat/g, mediator 1 mg/g, 60 min"}, "[8]": {"settings": "100 nkat/g, mediator 5 mg/g, 30 min"}, "[9]": {"settings": "100 nkat/g, mediator 5 mg/g, 60 min"}, "[10]": {"settings": "20 nkat/g, mediator 2 mg/g, 40° C."}, "[11]": {"settings": "200 nkat/g, mediator 0 mg/g, 40° C."}, "[12]": {"settings": "200 nkat/g, mediator 0 mg/g, 60° C."}, "[13]": {"settings": "200 nkat/g, mediator 10 mg/g, 40° C."}, "[14]": {"settings": "200 nkat/g, mediator 10 mg/g, 50° C."}, "[15]": {"settings": "200 nkat/g, mediator 10 mg/g, 60° C."}, "[16]": {"settings": "enzyme 20 nkat/100 ml, mediator 1 mg/100 ml"}, "[17]": {"settings": "enzyme 200 nkat/100 ml, mediator 0 mg/100 ml"}, "[18]": {"settings": "enzyme 200 nkat/100 ml, mediator 10 mg/100 ml"}},
  "data": [
    {"molecule": "TaLcc1: Recombinant Thielavia arenaria ALKO4197 laccase 1 (SEQ ID NO: 12) produced in Trichoderma reesei strains RF5597/RF5598 (protein, Thielavia arenaria ALKO4197; (1)..(617) Deduced amino acid sequence of Thielavia arenaria ALKO4197 laccase 1 (Ta Lcc1)) MKSWAAAVALMVGILSPHAAAAPPANPVQRDMLQVLEARQSGPTCNTPSNRACWTNGFDINTDYEVSTPNTGRTVAYQLTLTEKENWIGPDGVLKNVVMLVNDKIIGPTIRANWGDNIEVTVINNLKTNGTSMHWHGLRQLGNVFNDGANGVTECPIPPKGGRKTYKFRATQYGTSWYHSHFSAQYGNGVVGTIQIDGPASLPYDIDLGVFPLMDYYYRSADELVHFTQSNGAPPSDNVLFNGTARHPETGAGQWYNVTLTPGKRHRLRIINTSTDNHFQVSLVGHNMTVIATDMVPVNAFTVSSLFLAVGQRYDVTIDANSPVGNYWFNVTFGDGLCGSSNNKFPAAIFRYQGAPATLPTDQGLPVPNHMCLDNLNLTPVVTRSAPVNNFVKRPSNTLGVTLDIGGTPLFVWKVNGSAINVDWGKPILDYVMSGNTSYPVSDNIVQVDAVDQWTYWLIENDPTNPIVSLPHPMHLHGHDFLVLGRSPDELPSAGVRHIFDPAKDLPRLKGNNPVRRDVTMLPAGGWLLLAFKTDNPGAWLFHCHIAWHVSGGLSVDFLERPNDLRTQLNSNAKRADRDDFNRVCREWNAYWPTNPFPKIDSGLRHRFVEESEWMVR", "values": [
      {"measurement": "Specific activity on DMP", "setting": "[1]", "value": 285, "unit": "nkat/mg"},
      {"measurement": "E^0", "setting": "[2]", "value": 560, "unit": "mV"},
      {"measurement": "Increase of L*", "setting": "[3]; [6]", "value": 12.24},
      {"measurement": "L* after laccase treatment", "setting": "[3]; [6]", "value": 40.61},
      {"measurement": "b* after laccase treatment", "setting": "[3]; [6]", "value": "−16.16"},
      {"measurement": "Increase of L*", "setting": "[3]; [7]", "value": 15.09},
      {"measurement": "L* after laccase treatment", "setting": "[3]; [7]", "value": 42.72},
      {"measurement": "b* after laccase treatment", "setting": "[3]; [7]", "value": "−15.61"},
      {"measurement": "Increase of L*", "setting": "[3]; [8]", "value": 21.88},
      {"measurement": "L* after laccase treatment", "setting": "[3]; [8]", "value": 49.84},
      {"measurement": "b* after laccase treatment", "setting": "[3]; [8]", "value": "−13.75"},
      {"measurement": "Increase of L*", "setting": "[3]; [9]", "value": 25.68},
      {"measurement": "L* after laccase treatment", "setting": "[3]; [9]", "value": 53.46},
      {"measurement": "b* after laccase treatment", "setting": "[3]; [9]", "value": "−11.64"},
      {"measurement": "Grass L*", "setting": "[4]; [10]", "value": 80.16},
      {"measurement": "Grass a*", "setting": "[4]; [10]", "value": "−0.73"},
      {"measurement": "Grass b*", "setting": "[4]; [10]", "value": 16.20},
      {"measurement": "Grass L*", "setting": "[4]; [11]", "value": 80.25},
      {"measurement": "Grass a*", "setting": "[4]; [11]", "value": "−4.22"},
      {"measurement": "Grass b*", "setting": "[4]; [11]", "value": 17.41},
      {"measurement": "Grass L*", "setting": "[4]; [12]", "value": 79.38},
      {"measurement": "Grass a*", "setting": "[4]; [12]", "value": "−4.19"},
      {"measurement": "Grass b*", "setting": "[4]; [12]", "value": 17.77},
      {"measurement": "Grass L*", "setting": "[4]; [13]", "value": 80.34},
      {"measurement": "Grass a*", "setting": "[4]; [13]", "value": 0.47},
      {"measurement": "Grass b*", "setting": "[4]; [13]", "value": 16.51},
      {"measurement": "Grass L*", "setting": "[4]; [14]", "value": 80.60},
      {"measurement": "Grass a*", "setting": "[4]; [14]", "value": "−0.18"},
      {"measurement": "Grass b*", "setting": "[4]; [14]", "value": 17.65},
      {"measurement": "Grass L*", "setting": "[4]; [15]", "value": 80.6},
      {"measurement": "Grass a*", "setting": "[4]; [15]", "value": 0.02},
      {"measurement": "Grass b*", "setting": "[4]; [15]", "value": 18.71},
      {"measurement": "Decolorization of Indigocarmine, Time 30 min", "setting": "[5]; [16]", "value": "+"},
      {"measurement": "Decolorization of Indigocarmine, Time 90 min", "setting": "[5]; [16]", "value": "+++"},
      {"measurement": "Decolorization of Indigocarmine, Time 30 min", "setting": "[5]; [17]", "value": "−"},
      {"measurement": "Decolorization of Indigocarmine, Time 90 min", "setting": "[5]; [17]", "value": "−"},
      {"measurement": "Decolorization of Indigocarmine, Time 30 min", "setting": "[5]; [18]", "value": "+++"},
      {"measurement": "Decolorization of Indigocarmine, Time 90 min", "setting": "[5]; [18]", "value": "+++"},
      {"measurement": "time until blue colour of Indigocarmine had turned to light yellow", "setting": "[5]; in the presence of the mediator", "value": "< 30", "unit": "min"}
    ]}
  ]
}
